# The supplement of paper PMC9112550, “Optimization of the antimicrobial peptide Bac7 by deep mutational scanning” (BMC Biology, 2022)
# Test system: Escherichia coli TOP10
# Experiment: shrunken log2 fold change of peptide-encoding DNA abundance (4.5 h post-induction vs induction); higher = less antimicrobial activity (less host growth inhibition)
# Conditions: time post-induction: 4.5 h; library: site-saturation at positions 5, 18, 19, 20
# 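Note: peptides expressed intracellularly from a pBAD plasmid library in pooled LB shake-flask culture, induced with 0.3% L-arabinose, DNA abundance read by NGS, three biological replicates, DESeq2 with apeglm shrinkage.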
row,Sequence,shrunken log2 fold change
1,RRIRSRPPRLPRPRPRPASDPRP,0.407
2,RRIRTRPPRLPRPRPRPFEFPRP,-0.508
3,RRIRQRPPRLPRPRPRPHYFPRP,-0.239
4,RRIRGRPPRLPRPRPRPAYLPRP,0.235
5,RRIRWRPPRLPRPRPRPGLSPRP,-0.0318
6,RRIRNRPPRLPRPRPRPNDEPRP,-0.227
7,RRIRFRPPRLPRPRPRPMWEPRP,-0.232
8,RRIRVRPPRLPRPRPRPWTTPRP,0.115
9,RRIRWRPPRLPRPRPRPCPGPRP,-0.218
10,RRIRVRPPRLPRPRPRPQMMPRP,-0.0693
11,RRIRHRPPRLPRPRPRPMCHPRP,-0.00674
12,RRIRGRPPRLPRPRPRPHRFPRP,0.101
13,RRIRARPPRLPRPRPRPEKGPRP,-0.0434
14,RRIRMRPPRLPRPRPRPQRDPRP,0.0785
15,RRIRARPPRLPRPRPRPLPPPRP,0.805
16,RRIRWRPPRLPRPRPRPRTGPRP,0.235
17,RRIRYRPPRLPRPRPRPIGPPRP,-0.00962
18,RRIRSRPPRLPRPRPRPLGPPRP,0.0761
19,RRIRLRPPRLPRPRPRPQVSPRP,0.0548
20,RRIRLRPPRLPRPRPRPGSGPRP,0.337
21,RRIRIRPPRLPRPRPRPTPQPRP,-0.117
22,RRIRSRPPRLPRPRPRPNPQPRP,0.126
23,RRIRFRPPRLPRPRPRPILIPRP,-0.194

row,Sequence,shrunken log2 fold change
1,RRIRSRPPRLPRPRPRPTMFPRP,-0.0103
2,RRIRRRPPRLPRPRPRPLYGPRP,0.0447
3,RRIRYRPPRLPRPRPRPADGPRP,0.143
4,RRIRTRPPRLPRPRPRPCKFPRP,-0.298
5,RRIRRRPPRLPRPRPRPKHDPRP,1.2
6,RRIRHRPPRLPRPRPRPRLIPRP,-0.0786
7,RRIRERPPRLPRPRPRPQMLPRP,-0.0206
8,RRIRLRPPRLPRPRPRPWTCPRP,-0.54
9,RRIRDRPPRLPRPRPRPDNNPRP,-0.0748
10,RRIRYRPPRLPRPRPRPKRCPRP,0.0441
11,RRIRARPPRLPRPRPRPAWFPRP,0.303
12,RRIRQRPPRLPRPRPRPEDGPRP,0.154
13,RRIRHRPPRLPRPRPRPMFFPRP,-0.347
14,RRIRARPPRLPRPRPRPYQNPRP,-0.559
15,RRIRVRPPRLPRPRPRPAIMPRP,0.191
16,RRIRKRPPRLPRPRPRPQLYPRP,0.0948
17,RRIRKRPPRLPRPRPRPCDVPRP,0.0144
18,RRIRPRPPRLPRPRPRPDVGPRP,0.181
19,RRIRWRPPRLPRPRPRPTFDPRP,0.273
20,RRIRCRPPRLPRPRPRPMRYPRP,0.0209
21,RRIRTRPPRLPRPRPRPGGMPRP,-0.117
22,RRIRDRPPRLPRPRPRPFQSPRP,0.0407
23,RRIRRRPPRLPRPRPRPWLEPRP,0.0128

row,Sequence,shrunken log2 fold change
1,RRIRTRPPRLPRPRPRPKRDPRP,0.187
2,RRIRWRPPRLPRPRPRPCPHPRP,-0.00679
3,RRIRWRPPRLPRPRPRPMFSPRP,-0.0364
4,RRIRRRPPRLPRPRPRPHSAPRP,0.0905
5,RRIRIRPPRLPRPRPRPQSLPRP,-0.321
6,RRIRMRPPRLPRPRPRPNECPRP,0.175
7,RRIRERPPRLPRPRPRPLDFPRP,-0.353
8,RRIRHRPPRLPRPRPRPWHQPRP,-0.0658
9,RRIRLRPPRLPRPRPRPDLRPRP,-0.0717
10,RRIRPRPPRLPRPRPRPQHCPRP,-0.0861
11,RRIRIRPPRLPRPRPRPLRCPRP,-0.14
12,RRIRLRPPRLPRPRPRPTLAPRP,0.423
13,RRIRQRPPRLPRPRPRPEPCPRP,-0.0944
14,RRIRKRPPRLPRPRPRPWPDPRP,0.238
15,RRIRPRPPRLPRPRPRPHIWPRP,-0.3
16,RRIRVRPPRLPRPRPRPRHMPRP,0.152
17,RRIRFRPPRLPRPRPRPAISPRP,-0.193
18,RRIRQRPPRLPRPRPRPYFRPRP,-0.368
19,RRIRCRPPRLPRPRPRPTMMPRP,-0.0339
20,RRIRCRPPRLPRPRPRPAEYPRP,-0.335
21,RRIRERPPRLPRPRPRPKCKPRP,-0.173
22,RRIRGRPPRLPRPRPRPPWFPRP,0.772
23,RRIRARPPRLPRPRPRPKRRPRP,0.282

row,Sequence,shrunken log2 fold change
1,RRIRDRPPRLPRPRPRPAIGPRP,0.325
2,RRIRDRPPRLPRPRPRPDNLPRP,0.0916
3,RRIRARPPRLPRPRPRPCQNPRP,0.105
4,RRIRMRPPRLPRPRPRPPCHPRP,0.186
5,RRIRHRPPRLPRPRPRPNNCPRP,-0.0202
6,RRIRYRPPRLPRPRPRPMQPPRP,-0.0124
7,RRIRFRPPRLPRPRPRPERAPRP,0.611
8,RRIRQRPPRLPRPRPRPWVTPRP,-0.219
9,RRIRGRPPRLPRPRPRPTGQPRP,0.793
10,RRIRARPPRLPRPRPRPNQHPRP,-0.124
11,RRIRNRPPRLPRPRPRPNYQPRP,-0.599
12,RRIRTRPPRLPRPRPRPARLPRP,0.215
13,RRIRPRPPRLPRPRPRPTNAPRP,0.167
14,RRIRQRPPRLPRPRPRPKIPPRP,-0.0111
15,RRIRLRPPRLPRPRPRPEHAPRP,-0.00513
16,RRIRNRPPRLPRPRPRPYAMPRP,0.0743
17,RRIRLRPPRLPRPRPRPWRSPRP,-0.0908
18,RRIRDRPPRLPRPRPRPPYDPRP,-0.00841
19,RRIRRRPPRLPRPRPRPTSIPRP,-0.107
20,RRIRHRPPRLPRPRPRPTLRPRP,-0.0301
21,RRIRKRPPRLPRPRPRPKYNPRP,-0.267
22,RRIRRRPPRLPRPRPRPPTMPRP,0.374
23,RRIRARPPRLPRPRPRPDQMPRP,0.386

row,Sequence,shrunken log2 fold change
1,RRIRFRPPRLPRPRPRPLIHPRP,-0.891
2,RRIRPRPPRLPRPRPRPPLFPRP,0.36
3,RRIRIRPPRLPRPRPRPKGYPRP,-0.0143
4,RRIRDRPPRLPRPRPRPMNWPRP,0.0175
5,RRIRLRPPRLPRPRPRPHDMPRP,-0.117
6,RRIRIRPPRLPRPRPRPHEVPRP,-0.0624
7,RRIRPRPPRLPRPRPRPEFRPRP,-0.00133
8,RRIRRRPPRLPRPRPRPMFIPRP,-0.275
9,RRIRDRPPRLPRPRPRPKAHPRP,0.0408
10,RRIRTRPPRLPRPRPRPLTPPRP,-0.0473
11,RRIRRRPPRLPRPRPRPDWWPRP,-0.0208
12,RRIRERPPRLPRPRPRPFICPRP,-0.36
13,RRIRHRPPRLPRPRPRPGEIPRP,0.761
14,RRIRMRPPRLPRPRPRPTGFPRP,1.12
15,RRIRVRPPRLPRPRPRPTNFPRP,-0.287
16,RRIRLRPPRLPRPRPRPGEHPRP,-0.145
17,RRIRTRPPRLPRPRPRPSVRPRP,-0.155
18,RRIRSRPPRLPRPRPRPDAVPRP,0.32
19,RRIRARPPRLPRPRPRPFIPPRP,-0.492
20,RRIRCRPPRLPRPRPRPFQDPRP,-0.169
21,RRIRHRPPRLPRPRPRPHQSPRP,-0.0258
